Test results from the supplement of paper PMC9112550, “Optimization of the antimicrobial peptide Bac7 by deep mutational scanning” (BMC Biology, 2022).

Tested on: Escherichia coli TOP10
Test: shrunken log2 fold change of peptide-encoding DNA abundance (4.5 h post-induction vs induction); higher = less antimicrobial activity (less host growth inhibition)
Conditions: time post-induction: 4.5 h; library: site-saturation at positions 5, 18, 19, 20
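Also: peptides expressed intracellularly from a pBAD plasmid library in pooled LB shake-flask culture, induced with 0.3% L-arabinose, DNA abundance read by NGS, three biological replicates, DESeq2 with apeglm shrinkage.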

## RRIRHRPPRLPRPRPRPRRFPRP
  shrunken log2 fold change: 0.379

## RRIRSRPPRLPRPRPRPQMCPRP
  shrunken log2 fold change: -0.724

## RRIRERPPRLPRPRPRPIGHPRP
  shrunken log2 fold change: -0.244

## RRIRARPPRLPRPRPRPCVVPRP
  shrunken log2 fold change: 0.198

## RRIRWRPPRLPRPRPRPRHHPRP
  shrunken log2 fold change: -0.0574

## RRIRCRPPRLPRPRPRPIVDPRP
  shrunken log2 fold change: 0.0181

## RRIRDRPPRLPRPRPRPPNMPRP
  shrunken log2 fold change: 0.0281

## RRIRSRPPRLPRPRPRPDHFPRP
  shrunken log2 fold change: 0.0963

## RRIRSRPPRLPRPRPRPVFLPRP
  shrunken log2 fold change: -0.131

## RRIRYRPPRLPRPRPRPQQVPRP
  shrunken log2 fold change: -0.0456

## RRIRARPPRLPRPRPRPNHMPRP
  shrunken log2 fold change: -0.299

## RRIRVRPPRLPRPRPRPQWKPRP
  shrunken log2 fold change: -0.207

## RRIRQRPPRLPRPRPRPDCNPRP
  shrunken log2 fold change: 0.167

## RRIRLRPPRLPRPRPRPGDMPRP
  shrunken log2 fold change: -0.129

## RRIRSRPPRLPRPRPRPKNKPRP
  shrunken log2 fold change: -0.242

## RRIRCRPPRLPRPRPRPPSQPRP
  shrunken log2 fold change: 0.355

## RRIRMRPPRLPRPRPRPPSYPRP
  shrunken log2 fold change: 0.358

## RRIRCRPPRLPRPRPRPSMGPRP
  shrunken log2 fold change: -0.169

## RRIRDRPPRLPRPRPRPPICPRP
  shrunken log2 fold change: -0.224

## RRIRMRPPRLPRPRPRPAGWPRP
  shrunken log2 fold change: 1.37

## RRIRDRPPRLPRPRPRPLMFPRP
  shrunken log2 fold change: -0.188

## RRIRSRPPRLPRPRPRPRQFPRP
  shrunken log2 fold change: 0.165

## RRIRMRPPRLPRPRPRPASPPRP
  shrunken log2 fold change: 0.14

## RRIRQRPPRLPRPRPRPIPIPRP
  shrunken log2 fold change: -0.104

## RRIRTRPPRLPRPRPRPYHKPRP
  shrunken log2 fold change: -0.426

## RRIRVRPPRLPRPRPRPAPPPRP
  shrunken log2 fold change: 0.577

## RRIRMRPPRLPRPRPRPRPDPRP
  shrunken log2 fold change: 0.937

## RRIRSRPPRLPRPRPRPADIPRP
  shrunken log2 fold change: 0.0495

## RRIRQRPPRLPRPRPRPFLWPRP
  shrunken log2 fold change: -0.0488

## RRIRHRPPRLPRPRPRPTDRPRP
  shrunken log2 fold change: 0.0577

## RRIRSRPPRLPRPRPRPRVDPRP
  shrunken log2 fold change: 0.0568

## RRIRCRPPRLPRPRPRPRYNPRP
  shrunken log2 fold change: -0.465

## RRIRNRPPRLPRPRPRPEALPRP
  shrunken log2 fold change: 0.102

## RRIRIRPPRLPRPRPRPMYMPRP
  shrunken log2 fold change: 0.00884

## RRIRGRPPRLPRPRPRPWGIPRP
  shrunken log2 fold change: 0.0344

## RRIRIRPPRLPRPRPRPDLHPRP
  shrunken log2 fold change: 0.0268

## RRIRMRPPRLPRPRPRPEWGPRP
  shrunken log2 fold change: 0.437

## RRIRRRPPRLPRPRPRPARKPRP
  shrunken log2 fold change: 0.58

## RRIRSRPPRLPRPRPRPWIMPRP
  shrunken log2 fold change: -0.572

## RRIRFRPPRLPRPRPRPYEQPRP
  shrunken log2 fold change: 0.00332

## RRIRNRPPRLPRPRPRPFTPPRP
  shrunken log2 fold change: -0.197

## RRIRYRPPRLPRPRPRPNMSPRP
  shrunken log2 fold change: -0.675

## RRIRQRPPRLPRPRPRPKNPPRP
  shrunken log2 fold change: -0.26

## RRIRRRPPRLPRPRPRPVICPRP
  shrunken log2 fold change: 0.164

## RRIRARPPRLPRPRPRPWGPPRP
  shrunken log2 fold change: -0.119

## RRIRWRPPRLPRPRPRPRMHPRP
  shrunken log2 fold change: 0.485

## RRIRCRPPRLPRPRPRPTWVPRP
  shrunken log2 fold change: 0.342

## RRIRLRPPRLPRPRPRPESAPRP
  shrunken log2 fold change: 0.228

## RRIRPRPPRLPRPRPRPDRDPRP
  shrunken log2 fold change: -0.0875

## RRIRQRPPRLPRPRPRPATGPRP
  shrunken log2 fold change: 0.0181

## RRIRRRPPRLPRPRPRPEPSPRP
  shrunken log2 fold change: 0.228

## RRIRERPPRLPRPRPRPDQRPRP
  shrunken log2 fold change: -0.48

## RRIRPRPPRLPRPRPRPDATPRP
  shrunken log2 fold change: 0.625

## RRIRTRPPRLPRPRPRPLIFPRP
  shrunken log2 fold change: -0.446

## RRIRGRPPRLPRPRPRPNNFPRP
  shrunken log2 fold change: 0.291

## RRIRMRPPRLPRPRPRPFNCPRP
  shrunken log2 fold change: -0.643

## RRIRGRPPRLPRPRPRPRHSPRP
  shrunken log2 fold change: 0.242

## RRIRFRPPRLPRPRPRPINFPRP
  shrunken log2 fold change: -0.601

## RRIRKRPPRLPRPRPRPSKAPRP
  shrunken log2 fold change: -0.0406

## RRIRVRPPRLPRPRPRPNSWPRP
  shrunken log2 fold change: 0.0957

## RRIRDRPPRLPRPRPRPGECPRP
  shrunken log2 fold change: -0.0602

## RRIRTRPPRLPRPRPRPAPCPRP
  shrunken log2 fold change: 0.18

## RRIRGRPPRLPRPRPRPHFAPRP
  shrunken log2 fold change: 0.628

## RRIRMRPPRLPRPRPRPRYTPRP
  shrunken log2 fold change: 0.338

## RRIRERPPRLPRPRPRPLSCPRP
  shrunken log2 fold change: 0.075

## RRIRIRPPRLPRPRPRPPPYPRP
  shrunken log2 fold change: -0.177

## RRIRARPPRLPRPRPRPRPAPRP
  shrunken log2 fold change: 0.76

## RRIRQRPPRLPRPRPRPKCAPRP
  shrunken log2 fold change: 0.16

## RRIRGRPPRLPRPRPRPERFPRP
  shrunken log2 fold change: 0.969

## RRIRLRPPRLPRPRPRPNSVPRP
  shrunken log2 fold change: -0.11

## RRIRMRPPRLPRPRPRPVVAPRP
  shrunken log2 fold change: 0.533

## RRIRTRPPRLPRPRPRPWRVPRP
  shrunken log2 fold change: -0.00468

## RRIRDRPPRLPRPRPRPYVSPRP
  shrunken log2 fold change: -0.032

## RRIRVRPPRLPRPRPRPTEQPRP
  shrunken log2 fold change: 0.0304

## RRIRVRPPRLPRPRPRPSSAPRP
  shrunken log2 fold change: 0.0552

## RRIRARPPRLPRPRPRPHFVPRP
  shrunken log2 fold change: 0.0302

## RRIRQRPPRLPRPRPRPRERPRP
  shrunken log2 fold change: 0.553

## RRIRLRPPRLPRPRPRPMIWPRP
  shrunken log2 fold change: -0.0275

## RRIRLRPPRLPRPRPRPQLIPRP
  shrunken log2 fold change: -0.0529

## RRIRLRPPRLPRPRPRPVHWPRP
  shrunken log2 fold change: 0.4

## RRIRLRPPRLPRPRPRPVCCPRP
  shrunken log2 fold change: -0.185

## RRIRCRPPRLPRPRPRPRFCPRP
  shrunken log2 fold change: 0.071

## RRIRWRPPRLPRPRPRPPGAPRP
  shrunken log2 fold change: 0.904

## RRIRMRPPRLPRPRPRPWEAPRP
  shrunken log2 fold change: -0.033

## RRIRSRPPRLPRPRPRPQIEPRP
  shrunken log2 fold change: 0.0319

## RRIRTRPPRLPRPRPRPMQGPRP
  shrunken log2 fold change: 0.321

## RRIRKRPPRLPRPRPRPMAFPRP
  shrunken log2 fold change: 0.25

## RRIRSRPPRLPRPRPRPPSSPRP
  shrunken log2 fold change: -0.0711

## RRIRGRPPRLPRPRPRPCRYPRP
  shrunken log2 fold change: 0.24

## RRIRHRPPRLPRPRPRPFWFPRP
  shrunken log2 fold change: -0.382

## RRIRDRPPRLPRPRPRPPTEPRP
  shrunken log2 fold change: 0.274

## RRIRDRPPRLPRPRPRPHNAPRP
  shrunken log2 fold change: -0.0997

## RRIRCRPPRLPRPRPRPVCAPRP
  shrunken log2 fold change: 0.264

## RRIRARPPRLPRPRPRPNVSPRP
  shrunken log2 fold change: -0.11

## RRIRNRPPRLPRPRPRPHNIPRP
  shrunken log2 fold change: -0.54

## RRIRFRPPRLPRPRPRPFGEPRP
  shrunken log2 fold change: 0.135

## RRIRARPPRLPRPRPRPSAVPRP
  shrunken log2 fold change: 0.282

## RRIRWRPPRLPRPRPRPPMLPRP
  shrunken log2 fold change: 0.0923

## RRIRKRPPRLPRPRPRPWQWPRP
  shrunken log2 fold change: 0.0199

## RRIRKRPPRLPRPRPRPSELPRP
  shrunken log2 fold change: 0.141

## RRIRVRPPRLPRPRPRPETEPRP
  shrunken log2 fold change: 0.276

## RRIRWRPPRLPRPRPRPLWCPRP
  shrunken log2 fold change: 0.149

## RRIRNRPPRLPRPRPRPVIAPRP
  shrunken log2 fold change: -0.25

## RRIRMRPPRLPRPRPRPNMFPRP
  shrunken log2 fold change: 0.0213

## RRIRMRPPRLPRPRPRPSCAPRP
  shrunken log2 fold change: 0.563

## RRIRPRPPRLPRPRPRPGRCPRP
  shrunken log2 fold change: 0.442

## RRIRQRPPRLPRPRPRPIPDPRP
  shrunken log2 fold change: -0.07

## RRIRSRPPRLPRPRPRPQLNPRP
  shrunken log2 fold change: -0.248

## RRIRERPPRLPRPRPRPASNPRP
  shrunken log2 fold change: -0.257

## RRIRPRPPRLPRPRPRPNLIPRP
  shrunken log2 fold change: -0.203

## RRIRRRPPRLPRPRPRPAKFPRP
  shrunken log2 fold change: 0.217

## RRIRMRPPRLPRPRPRPREYPRP
  shrunken log2 fold change: 0.314

## RRIRVRPPRLPRPRPRPAILPRP
  shrunken log2 fold change: -0.204

## RRIRIRPPRLPRPRPRPPDQPRP
  shrunken log2 fold change: -0.0864

## RRIRTRPPRLPRPRPRPAYCPRP
  shrunken log2 fold change: -0.0119

## RRIRVRPPRLPRPRPRPIDEPRP
  shrunken log2 fold change: 0.0357

## RRIRDRPPRLPRPRPRPSNDPRP
  shrunken log2 fold change: 0.0978

## RRIRMRPPRLPRPRPRPIMFPRP
  shrunken log2 fold change: -0.103

## RRIRLRPPRLPRPRPRPHKVPRP
  shrunken log2 fold change: -0.18

## RRIRERPPRLPRPRPRPWMCPRP
  shrunken log2 fold change: -0.11

## RRIRKRPPRLPRPRPRPMICPRP
  shrunken log2 fold change: 0.0303

## RRIRTRPPRLPRPRPRPEYSPRP
  shrunken log2 fold change: -0.0382

## RRIRRRPPRLPRPRPRPICEPRP
  shrunken log2 fold change: 0.356

## RRIRFRPPRLPRPRPRPGGYPRP
  shrunken log2 fold change: 0.0294

## RRIRTRPPRLPRPRPRPQQFPRP
  shrunken log2 fold change: -0.0175

## RRIRFRPPRLPRPRPRPKNQPRP
  shrunken log2 fold change: -0.195

## RRIRHRPPRLPRPRPRPHVPPRP
  shrunken log2 fold change: 0.084

## RRIRLRPPRLPRPRPRPTADPRP
  shrunken log2 fold change: 0.346

## RRIRQRPPRLPRPRPRPFSHPRP
  shrunken log2 fold change: -0.127

## RRIRYRPPRLPRPRPRPPMAPRP
  shrunken log2 fold change: 0.298

## RRIRWRPPRLPRPRPRPYEWPRP
  shrunken log2 fold change: 0.0229

## RRIRKRPPRLPRPRPRPNSAPRP
  shrunken log2 fold change: 0.393

## RRIRARPPRLPRPRPRPVMNPRP
  shrunken log2 fold change: -0.0562

## RRIRFRPPRLPRPRPRPMEYPRP
  shrunken log2 fold change: 0.0429

## RRIRIRPPRLPRPRPRPNDSPRP
  shrunken log2 fold change: -0.137

## RRIRYRPPRLPRPRPRPRFLPRP
  shrunken log2 fold change: -0.42

## RRIRIRPPRLPRPRPRPHMTPRP
  shrunken log2 fold change: -0.64

## RRIRRRPPRLPRPRPRPDGPPRP
  shrunken log2 fold change: 0.215

## RRIRCRPPRLPRPRPRPATSPRP
  shrunken log2 fold change: 0.0157

## RRIRARPPRLPRPRPRPQIVPRP
  shrunken log2 fold change: -0.0292

## RRIRGRPPRLPRPRPRPPDIPRP
  shrunken log2 fold change: 0.514

## RRIRERPPRLPRPRPRPLSRPRP
  shrunken log2 fold change: 0.00391

## RRIRVRPPRLPRPRPRPYNTPRP
  shrunken log2 fold change: -0.326

## RRIRLRPPRLPRPRPRPQEMPRP
  shrunken log2 fold change: -0.0408

## RRIRYRPPRLPRPRPRPAWFPRP
  shrunken log2 fold change: -0.0816

## RRIRDRPPRLPRPRPRPLDMPRP
  shrunken log2 fold change: -0.08

## RRIRQRPPRLPRPRPRPSNNPRP
  shrunken log2 fold change: -0.729

## RRIRHRPPRLPRPRPRPYNTPRP
  shrunken log2 fold change: -1.01

## RRIRSRPPRLPRPRPRPGRNPRP
  shrunken log2 fold change: -0.225

## RRIRQRPPRLPRPRPRPDIFPRP
  shrunken log2 fold change: -0.104
